Assay results reported in article PMC9204741 (2022).

T1: His6-SmiA (B. subtilis)
T1 chain: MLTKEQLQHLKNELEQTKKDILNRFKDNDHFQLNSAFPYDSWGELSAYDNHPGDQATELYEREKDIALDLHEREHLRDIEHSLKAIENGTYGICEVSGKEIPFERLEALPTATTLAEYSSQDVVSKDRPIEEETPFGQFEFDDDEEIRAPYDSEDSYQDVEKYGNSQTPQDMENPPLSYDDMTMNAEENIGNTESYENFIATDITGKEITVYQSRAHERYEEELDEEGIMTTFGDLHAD


Legend:
LonA-His6 (B. subtilis) = LonA-His6 (B. subtilis) (UniProt P37945)
His6-SmiA [1] = biological target: T1, His6-SmiA; assay: BLI
His6-SmiA [2] = biological target: T1, His6-SmiA; assay: BLI; His6-SmiA (300 nM) loaded on anti-penta-His (HIS1K) biosensors; GST-SwrA variants 50-400 nM as analyte; 1x PBS, 1x kinetics buffer, 2% dialyzed fetal bovine serum, 0.5 mM TCEP; 1:1 binding model; Octet RED96

Sequence of LonA-His6 (B. subtilis) (P37945 whole entry): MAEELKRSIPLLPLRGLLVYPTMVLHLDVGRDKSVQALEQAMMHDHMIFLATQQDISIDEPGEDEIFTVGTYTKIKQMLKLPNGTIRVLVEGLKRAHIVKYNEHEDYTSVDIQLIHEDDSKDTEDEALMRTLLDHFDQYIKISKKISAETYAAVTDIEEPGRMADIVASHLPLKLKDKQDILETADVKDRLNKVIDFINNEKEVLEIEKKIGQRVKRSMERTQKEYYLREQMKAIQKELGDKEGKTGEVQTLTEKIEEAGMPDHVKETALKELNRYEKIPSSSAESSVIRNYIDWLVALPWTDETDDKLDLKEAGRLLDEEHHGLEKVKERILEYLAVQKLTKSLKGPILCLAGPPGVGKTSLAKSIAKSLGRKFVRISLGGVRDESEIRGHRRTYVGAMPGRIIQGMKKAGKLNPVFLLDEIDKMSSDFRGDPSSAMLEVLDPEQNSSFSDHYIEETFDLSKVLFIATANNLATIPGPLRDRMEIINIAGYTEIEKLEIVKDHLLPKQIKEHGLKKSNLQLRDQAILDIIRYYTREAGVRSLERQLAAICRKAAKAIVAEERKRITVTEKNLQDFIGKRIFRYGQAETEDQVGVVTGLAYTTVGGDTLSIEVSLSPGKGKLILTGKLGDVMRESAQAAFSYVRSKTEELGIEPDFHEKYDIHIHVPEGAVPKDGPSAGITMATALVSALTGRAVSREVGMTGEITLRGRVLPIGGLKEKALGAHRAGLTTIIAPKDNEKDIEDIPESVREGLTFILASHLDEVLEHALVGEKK

Km of in vitro proteolysis of GST-mNG-SwrA (loss of fluorescence) with 0.25 μM LonA and 0.5 μM SmiA (LonA-His6 (B. subtilis)) [µM]	Kd (His6-SmiA [1]) [nM]	Kd (His6-SmiA [2]) [nM]	koff (His6-SmiA [2]) [s⁻¹]	kon (His6-SmiA [2]) [M⁻¹ s⁻¹]	Molecule
1.14					GST-mNG-SwrA (from UniProt O32266 1-117) (natural protein)
	43.2	43.2	0.00418	96800	GST-SwrA^Δ101–117 (domain or fragment) MKRASIVREKKYYELVEQLKDRTQDVTFSATKALSLLMLFSRYLVNYTNVESVNDINEECAKHYFNYLMKNHKRLGINLTDIKRSMHLISGLLDVDVNHY
	60.9		0.0093	153000	GST-SwrA (natural protein) MKRASIVREKKYYELVEQLKDRTQDVTFSATKALSLLMLFSRYLVNYTNVESVNDINEECAKHYFNYLMKNHKRLGINLTDIKRSMHLISGLLDVDVNHYLKDFSLSNVTLWMTQER
